The text below walks through data of patent US20250295809A1 (published 2025).

The target of assay [1] is T1, HER2 ECD (human, UniProt P04626 23-652).
T1 construct: extracellular domain; also called ErbB2; HER2/neu
Briefly: SPR (Biacore 8K); antibody captured on anti-human IgG Fc CM5 chip; HER2 ECD 0.625-80 nM as analyte; 1:1 global fit; 25 C.

Assay [2] deals with T2, HER2 ECD (human, UniProt P04626 23-652).
T2 construct: extracellular domain
Description: SPR Biacore, binding to Her2 ECD, 1:1 binding model (global fit); HER-10 from concentrated SK-BR-3 culture medium. As to the method:
(§1) Antibody binding to HER2 was analyzed by Biacore 8K (GE Healthcare) surface plasmon resonance instrument (SPR). All reagents used were from GE Healthcare. HBS-EP+ was used as the sample and running buffer and the interaction was measured at 25° C. […] HER2 ECD (0.625-80 nM, 2-fold dilution) was passed over the captured anti-HER2 antibody at 30 μl/min flow rate, and association and dissociation phases were recorded for 300 and 600 sec, respectively. The sensor chip was regenerated by a 30 sec injection of 3M MgCl₂ at 30 μl/min at the end of each injection cycle. […] The conditioned media was diluted in HBS-EP+ to achieve a capture level that produced a final HER2 binding response of less than 200 RU.
(§2) SK-BR-3 cells were reverse transfected with plasmid DNA using Lipofectamine LTX and PLUS Reagent in fibronectin-coated flasks. The culture supernatant was replaced with serum-free medium (Opti-MEM) one day post-transfection. Three days post-transfection, the culture medium was concentrated using centrifugal concentrators (MilliporeSigma) and analyzed by Biacore SPR binding to Her2 ECD with data fitted to a 1:1 binding model (global fit).

The target in assay [3] is T2, HER2 ECD. Description: SPR Biacore, binding to Her2 ECD, 1:1 binding model (global fit); HER-10 expressed from Expi293 cells. As to the method: as §1, §2
The next assay deals with HER2 on SK-BR-3 cells (human, UniProt P04626 23-1255). Briefly: cell-based or functional assay.

B1: HER-10 recombinant (naked) antibody (antibody, human IgG1, kappa, V domains shown)
VH: QVQLQQSGPELVKPGASLKLSCTASGFNIKDTYIHWVKQRPEQGLEWIGRIYPTNGYTRYDPKFQDKATITADTSSNTAYLQVSRLTSEDTAVYYCSRWGGDGFYAMDYWGQGASVTVSS
VL: DIVMTQSHKFMSTSVGDRVSITCKASQDVNTAVAWYQQKPGHSPKLLIYSASFRYTGVPDRFTGSRSGTDFTFTISSVQAEDLAVYYCQQHYTTPPTFGGGTKVEIKR
notes: also called Ab-HER-10
In the assay with HER2 ECD [1], B1 gave a Kd of 1.2 nM, a koff of 0.00021 s⁻¹ and a kon of 190000 M⁻¹ s⁻¹.

B2: HER-10 anti-HER2 antibody (Ab-HER-10) (antibody, human IgG1, kappa, V domains shown)
VH: QVQLQQSGPELVKPGASLKLSCTASGFNIKDTYIHWVKQRPEQGLEWIGRIYPTNGYTRYDPKFQDKATITADTSSNTAYLQVSRLTSEDTAVYYCSRWGGDGFYAMDYWGQGASVTVSS
VL: DIVMTQSHKFMSTSVGDRVSITCKASQDVNTAVAWYQQKPGHSPKLLIYSASFRYTGVPDRFTGSRSGTDFTFTISSVQAEDLAVYYCQQHYTTPPTFGGGTKVEIKR
With B2, the Kd is 0.96 nM in the assay with HER2 ECD [2] and 1.58 nM with HER2 ECD [3].

B3: HER-10 vectorized anti-HER2 antibody (antibody, human IgG1, kappa, V domains shown)
VH: QVQLQQSGPELVKPGASLKLSCTASGFNIKDTYIHWVKQRPEQGLEWIGRIYPTNGYTRYDPKFQDKATITADTSSNTAYLQVSRLTSEDTAVYYCSRWGGDGFYAMDYWGQGASVTVSS
VL: DIVMTQSHKFMSTSVGDRVSITCKASQDVNTAVAWYQQKPGHSPKLLIYSASFRYTGVPDRFTGSRSGTDFTFTISSVQAEDLAVYYCQQHYTTPPTFGGGTKVEIKR
notes: also called Ab-HER-10
Regarding B3, in the assay with HER2 ECD [1], the Kd was 1.5 nM, the koff is 0.00025 s⁻¹ and the kon stood at 170000 M⁻¹ s⁻¹.

B4: Ab-HER-78 (bispecific antibody, human IgG1, kappa)
heavy: QVQLVQSGAEVKKPGASVKVSCKASGYSFTGYFINWVREAPGQGLEWMGHISSSYATSTYNQKFQGRVTFTVDTSSSTAYMELSSLRSEDTAVYYCVRSGNYEEYAMDYWGQGTLVTVSSASTKGPSVFPLAPSSKSTSGGTAALGCLVKDYFPEPVTVSWNSGALTSGVHTFPAVLQSSGLYSLSSVVTVPSSSLGTQTYICNVNHKPSNTKVDKRVEPKSCDKTHTCPPCPAPELVGGPSVFLLPPKPKDTLMISRTPEVTCVVVDVSHEDPEVKFNWYVDGVEVHNAKTKPPEEQYNSTLRVVSVLTVLHQDWLNGKEYKCKVSNKALPAPIEKTISKAKGQPREPQVYTLPPSRDELTKNQVSLTCLVKGFYPSDIAVEWESNGQPENNYKTTPLVLDSDGSFFLYSKLTVDKSRWQQGNVFSCSVMHEALHNHYTQKSLSLSPGK
light: not shown
Turning to B4, in the assay with HER2 on SK-BR-3 cells, the “Emax (SK-BR-3 cell proliferation, CellTiter-Glo 2.0, five days)” value was 56.5% and the “IC50 (SK-BR-3 cell proliferation, CellTiter-Glo 2.0, five days)” value was determined as 0.08 µg/mL.
